According to article PMC5937523 (Biochemistry, 2017):

T1: human KDAC8 (lysine deacetylase 8) (human) (UniProt Q9BY41)
T1 sequence: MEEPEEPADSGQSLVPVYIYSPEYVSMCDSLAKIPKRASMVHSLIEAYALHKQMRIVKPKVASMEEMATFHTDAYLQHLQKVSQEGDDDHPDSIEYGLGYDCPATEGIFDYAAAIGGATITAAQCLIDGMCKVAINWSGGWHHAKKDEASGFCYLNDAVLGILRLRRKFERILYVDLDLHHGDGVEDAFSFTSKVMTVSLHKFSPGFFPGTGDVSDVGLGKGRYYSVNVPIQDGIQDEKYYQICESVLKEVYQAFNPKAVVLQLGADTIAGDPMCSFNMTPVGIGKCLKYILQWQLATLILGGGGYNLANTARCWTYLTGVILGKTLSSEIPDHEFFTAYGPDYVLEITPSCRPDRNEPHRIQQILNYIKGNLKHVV

T2: KDAC6 (Homo sapiens, UniProt Q9UBN7)
T2 sequence (Q9UBN7 1-1215): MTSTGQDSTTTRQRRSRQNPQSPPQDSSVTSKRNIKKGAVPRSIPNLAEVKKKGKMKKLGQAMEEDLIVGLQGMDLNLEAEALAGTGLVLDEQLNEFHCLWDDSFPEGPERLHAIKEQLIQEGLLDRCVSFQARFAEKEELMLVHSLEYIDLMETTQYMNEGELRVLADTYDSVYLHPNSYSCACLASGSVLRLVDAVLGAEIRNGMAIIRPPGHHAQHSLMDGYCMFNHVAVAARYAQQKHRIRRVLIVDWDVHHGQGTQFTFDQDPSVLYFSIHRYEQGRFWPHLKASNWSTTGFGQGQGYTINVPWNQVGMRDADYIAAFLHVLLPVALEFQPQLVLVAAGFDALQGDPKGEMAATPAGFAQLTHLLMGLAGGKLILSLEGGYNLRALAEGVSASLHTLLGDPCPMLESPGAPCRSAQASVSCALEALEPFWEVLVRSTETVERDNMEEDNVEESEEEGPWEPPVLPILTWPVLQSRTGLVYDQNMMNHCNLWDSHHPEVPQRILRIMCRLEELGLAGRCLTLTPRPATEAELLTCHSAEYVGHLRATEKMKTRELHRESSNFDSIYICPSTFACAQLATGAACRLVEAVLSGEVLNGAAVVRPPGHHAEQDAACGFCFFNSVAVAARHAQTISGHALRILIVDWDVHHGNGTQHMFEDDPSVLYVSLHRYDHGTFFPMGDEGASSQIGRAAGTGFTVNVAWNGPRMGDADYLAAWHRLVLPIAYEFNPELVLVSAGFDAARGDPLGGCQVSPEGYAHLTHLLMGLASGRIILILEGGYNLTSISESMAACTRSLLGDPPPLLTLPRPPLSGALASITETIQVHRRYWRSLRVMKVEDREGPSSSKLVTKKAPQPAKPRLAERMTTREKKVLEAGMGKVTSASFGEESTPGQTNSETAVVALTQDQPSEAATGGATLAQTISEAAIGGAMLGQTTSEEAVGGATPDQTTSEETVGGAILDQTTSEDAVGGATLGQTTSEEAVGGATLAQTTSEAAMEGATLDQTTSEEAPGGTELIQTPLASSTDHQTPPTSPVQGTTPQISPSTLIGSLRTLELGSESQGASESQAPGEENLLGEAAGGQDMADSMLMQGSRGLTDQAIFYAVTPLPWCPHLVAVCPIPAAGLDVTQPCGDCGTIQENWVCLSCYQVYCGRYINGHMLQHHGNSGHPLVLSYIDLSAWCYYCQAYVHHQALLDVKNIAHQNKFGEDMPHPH


What was measured:
[1] = target: T1, human KDAC8 (lysine deacetylase 8) (human)
KDAC6 = target: T2, KDAC6
[2] = target: KDAC6 (lysine deacetylase 6) (human) (UniProt Q9UBN7)

| Molecule | KM of steady-state deacetylation kinetics (fluorescamine assay, 25 °C) [1] [µM] | SAHA inhibition of KDAC6 in the presence and absence of AMC (KDAC6) | KM of steady-state deacetylation kinetics (fluorescamine assay, 25 °C) [2] [µM] |
| --- | --- | --- | --- |
| RG{K-ac} (peptide) | > 5000 | – | – |
| O=C(CCCCCCC(=O)Nc1ccccc1)NO [SAHA, suberoylanilide hydroxamic acid] | – | comparable | – |
| {K-ac}W (peptide) | > 5000 | – | 70 |
| Ac-RGK(Ac)W-NH2 [RG{K-ac}W] | 2700 | – | – |
| Ac-RHK(Ac)K(Ac)W-NH2 [RH{K-ac}{K-ac}W] | 1200 | – | – |
| Ac-RHK(Ac)K(Ac)-NH2 [RH{K-ac}{K-ac}] | 3100 | – | 370 |
